Molecular target: mMBP-fused VERL-Fb (fragment of vitelline envelope receptor for lysin)
Assay: crystal structure; crystals of the mMBP-VERL-Fb fusion, space group P2(1), 2.9 Å, molecular replacement with MBP; refinement ongoing

Sequence of mMBP-fused VERL-Fb (fragment of vitelline envelope receptor for lysin) (Q8WR62 25-3722): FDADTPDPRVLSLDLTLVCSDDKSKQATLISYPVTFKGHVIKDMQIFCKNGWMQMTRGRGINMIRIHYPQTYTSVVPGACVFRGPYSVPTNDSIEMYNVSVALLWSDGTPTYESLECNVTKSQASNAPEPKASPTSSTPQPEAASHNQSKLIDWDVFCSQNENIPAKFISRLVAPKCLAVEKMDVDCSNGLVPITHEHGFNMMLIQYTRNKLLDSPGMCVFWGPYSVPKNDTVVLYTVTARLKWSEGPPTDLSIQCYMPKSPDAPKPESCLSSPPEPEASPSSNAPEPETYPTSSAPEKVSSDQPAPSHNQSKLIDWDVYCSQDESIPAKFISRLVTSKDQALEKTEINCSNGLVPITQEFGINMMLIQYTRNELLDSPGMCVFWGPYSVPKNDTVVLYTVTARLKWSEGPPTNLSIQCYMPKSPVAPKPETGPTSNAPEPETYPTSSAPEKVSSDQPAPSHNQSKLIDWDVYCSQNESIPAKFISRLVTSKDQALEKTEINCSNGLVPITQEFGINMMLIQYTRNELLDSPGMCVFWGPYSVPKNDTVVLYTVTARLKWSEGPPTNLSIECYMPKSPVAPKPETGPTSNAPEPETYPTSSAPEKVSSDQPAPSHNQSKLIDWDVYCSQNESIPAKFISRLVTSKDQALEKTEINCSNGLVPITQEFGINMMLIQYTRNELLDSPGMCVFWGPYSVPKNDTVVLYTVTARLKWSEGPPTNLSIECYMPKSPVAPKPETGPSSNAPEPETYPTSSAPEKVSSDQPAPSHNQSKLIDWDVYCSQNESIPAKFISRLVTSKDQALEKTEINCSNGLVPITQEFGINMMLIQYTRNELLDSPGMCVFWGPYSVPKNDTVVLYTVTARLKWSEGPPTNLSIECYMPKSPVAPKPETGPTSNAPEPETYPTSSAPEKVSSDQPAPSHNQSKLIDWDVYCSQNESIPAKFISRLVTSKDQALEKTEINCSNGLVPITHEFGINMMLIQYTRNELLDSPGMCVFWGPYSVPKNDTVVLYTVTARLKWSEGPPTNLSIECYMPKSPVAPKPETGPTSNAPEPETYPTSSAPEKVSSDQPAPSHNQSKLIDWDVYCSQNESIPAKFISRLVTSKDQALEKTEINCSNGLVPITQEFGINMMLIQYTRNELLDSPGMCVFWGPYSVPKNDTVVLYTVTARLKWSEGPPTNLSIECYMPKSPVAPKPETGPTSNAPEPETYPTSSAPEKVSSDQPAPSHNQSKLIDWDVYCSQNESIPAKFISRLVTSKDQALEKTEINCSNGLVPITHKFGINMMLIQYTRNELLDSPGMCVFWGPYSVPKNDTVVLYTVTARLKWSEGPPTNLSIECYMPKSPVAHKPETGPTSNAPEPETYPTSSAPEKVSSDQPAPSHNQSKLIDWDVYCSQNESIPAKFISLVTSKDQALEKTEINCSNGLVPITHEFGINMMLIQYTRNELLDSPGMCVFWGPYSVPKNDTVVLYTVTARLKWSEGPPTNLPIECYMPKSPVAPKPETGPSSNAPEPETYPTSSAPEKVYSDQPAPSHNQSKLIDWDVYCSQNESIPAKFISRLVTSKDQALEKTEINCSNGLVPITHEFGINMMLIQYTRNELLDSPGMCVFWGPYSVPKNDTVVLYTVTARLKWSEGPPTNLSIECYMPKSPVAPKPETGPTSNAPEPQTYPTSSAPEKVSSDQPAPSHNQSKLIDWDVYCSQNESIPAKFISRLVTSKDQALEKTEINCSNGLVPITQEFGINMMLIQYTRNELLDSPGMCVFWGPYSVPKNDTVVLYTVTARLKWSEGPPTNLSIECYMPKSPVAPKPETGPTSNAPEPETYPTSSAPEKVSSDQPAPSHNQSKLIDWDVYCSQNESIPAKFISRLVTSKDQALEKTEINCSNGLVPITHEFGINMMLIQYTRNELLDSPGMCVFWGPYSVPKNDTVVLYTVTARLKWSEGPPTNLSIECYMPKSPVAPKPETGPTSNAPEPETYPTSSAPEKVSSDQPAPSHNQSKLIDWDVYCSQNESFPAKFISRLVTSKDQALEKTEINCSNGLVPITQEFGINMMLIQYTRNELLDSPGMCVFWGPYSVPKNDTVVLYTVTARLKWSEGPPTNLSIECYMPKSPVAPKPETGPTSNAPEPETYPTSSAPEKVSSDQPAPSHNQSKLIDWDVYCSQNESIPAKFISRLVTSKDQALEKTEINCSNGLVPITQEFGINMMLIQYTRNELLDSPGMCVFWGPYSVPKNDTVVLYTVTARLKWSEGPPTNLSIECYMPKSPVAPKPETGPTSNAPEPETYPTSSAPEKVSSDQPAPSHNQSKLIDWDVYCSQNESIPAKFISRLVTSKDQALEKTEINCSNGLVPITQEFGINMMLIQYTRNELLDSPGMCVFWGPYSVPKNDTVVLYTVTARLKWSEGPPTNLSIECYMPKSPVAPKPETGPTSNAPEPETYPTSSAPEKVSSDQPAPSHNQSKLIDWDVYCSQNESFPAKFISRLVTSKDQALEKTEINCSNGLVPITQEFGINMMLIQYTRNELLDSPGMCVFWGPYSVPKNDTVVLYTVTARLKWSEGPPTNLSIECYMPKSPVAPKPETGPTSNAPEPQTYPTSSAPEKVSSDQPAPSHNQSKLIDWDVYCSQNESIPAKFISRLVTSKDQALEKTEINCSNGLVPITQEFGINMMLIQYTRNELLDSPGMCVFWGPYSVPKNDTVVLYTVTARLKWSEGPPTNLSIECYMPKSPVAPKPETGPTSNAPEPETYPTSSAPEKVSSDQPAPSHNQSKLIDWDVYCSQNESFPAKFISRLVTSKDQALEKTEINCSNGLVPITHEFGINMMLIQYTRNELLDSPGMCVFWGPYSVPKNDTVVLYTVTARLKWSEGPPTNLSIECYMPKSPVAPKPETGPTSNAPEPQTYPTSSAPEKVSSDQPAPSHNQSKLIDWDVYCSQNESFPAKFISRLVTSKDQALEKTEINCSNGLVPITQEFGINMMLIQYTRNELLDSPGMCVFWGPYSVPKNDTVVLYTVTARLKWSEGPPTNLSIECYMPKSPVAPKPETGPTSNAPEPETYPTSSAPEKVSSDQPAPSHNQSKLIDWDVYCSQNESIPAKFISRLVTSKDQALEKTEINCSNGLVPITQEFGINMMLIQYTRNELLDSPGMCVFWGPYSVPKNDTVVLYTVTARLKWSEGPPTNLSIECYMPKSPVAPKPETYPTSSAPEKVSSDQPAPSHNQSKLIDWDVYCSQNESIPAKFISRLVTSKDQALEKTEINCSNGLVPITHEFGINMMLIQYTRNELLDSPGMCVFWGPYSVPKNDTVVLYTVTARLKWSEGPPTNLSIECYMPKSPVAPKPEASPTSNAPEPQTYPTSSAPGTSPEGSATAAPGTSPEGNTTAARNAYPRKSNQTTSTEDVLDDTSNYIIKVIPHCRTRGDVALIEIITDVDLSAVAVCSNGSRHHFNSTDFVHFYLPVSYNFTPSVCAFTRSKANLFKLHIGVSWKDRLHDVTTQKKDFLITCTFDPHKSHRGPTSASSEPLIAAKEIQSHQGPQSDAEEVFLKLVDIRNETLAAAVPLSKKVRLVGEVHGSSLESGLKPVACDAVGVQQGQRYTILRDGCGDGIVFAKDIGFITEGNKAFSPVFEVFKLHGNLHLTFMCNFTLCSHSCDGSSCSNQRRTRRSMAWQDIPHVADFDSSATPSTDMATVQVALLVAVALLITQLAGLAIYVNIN

mMBP-fused VERL-Fb (fragment of vitelline envelope receptor for lysin) (domain or fragment)
stoichiometry N: 2
